Patent publication US20140087995A1 (published 2014)
Numbered stars: 1 amine (or outer) side, 2 acyl side, 3 side chain; on linkers, the order of the positions; unused ones are H or OH. Bridge positions count the residues as written; N and C are the ends. Side chains are listed from the residue outwards. Ends that are not written are not given here. * marks the point of attachment. C16 diacid = O=C(O)CCCCCCCCCCCCCCC(=O)*; γGlu = O=C(O)[C@H](CCC(=O)[*:2])N[*:1]

T1: human calcitonin receptor (human, UniProt P30988 25-474)
T1 construct: whole, on cells; Membranes of a BHK tk'ts 13 cell line stably transfected with the human calcitonin receptor; also called hCTR; hCT
T1 sequence (looked up): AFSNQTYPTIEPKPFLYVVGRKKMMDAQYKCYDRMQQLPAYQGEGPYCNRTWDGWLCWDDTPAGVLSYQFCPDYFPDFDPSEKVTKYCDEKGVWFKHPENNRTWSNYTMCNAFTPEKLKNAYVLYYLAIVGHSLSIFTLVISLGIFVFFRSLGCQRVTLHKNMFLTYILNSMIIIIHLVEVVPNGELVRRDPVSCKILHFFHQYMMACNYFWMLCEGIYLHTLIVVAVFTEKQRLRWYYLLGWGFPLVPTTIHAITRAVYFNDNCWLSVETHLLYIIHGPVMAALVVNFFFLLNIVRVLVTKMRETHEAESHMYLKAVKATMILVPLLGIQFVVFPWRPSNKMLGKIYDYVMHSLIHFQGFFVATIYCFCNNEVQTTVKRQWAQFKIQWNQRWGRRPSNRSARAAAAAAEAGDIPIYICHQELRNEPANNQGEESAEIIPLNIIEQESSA

T2: rat calcitonin receptor (rat, UniProt P32214 25-516)
T2 construct: whole, on cells; Membranes of BHK tk'ts 13 cells transiently transfected with the rat calcitonin receptor; also called rCTR; rat calcitonin (a) receptor
T2 sequence (looked up): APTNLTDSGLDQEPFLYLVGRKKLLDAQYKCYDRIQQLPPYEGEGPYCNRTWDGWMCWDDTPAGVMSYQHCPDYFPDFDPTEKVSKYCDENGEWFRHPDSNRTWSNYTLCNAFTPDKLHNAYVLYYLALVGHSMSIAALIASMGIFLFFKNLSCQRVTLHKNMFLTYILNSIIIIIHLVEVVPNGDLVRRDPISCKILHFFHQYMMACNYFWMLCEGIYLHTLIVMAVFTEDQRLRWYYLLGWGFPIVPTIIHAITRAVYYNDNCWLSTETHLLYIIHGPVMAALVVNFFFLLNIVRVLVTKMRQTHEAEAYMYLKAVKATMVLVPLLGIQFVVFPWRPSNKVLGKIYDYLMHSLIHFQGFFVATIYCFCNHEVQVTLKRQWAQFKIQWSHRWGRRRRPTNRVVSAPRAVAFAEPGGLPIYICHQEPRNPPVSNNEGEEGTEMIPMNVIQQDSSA

T3: rat amylin receptor (rat calcitonin receptor + rat RAMP 3) (rat, UniProt P32214 25-516; Q9JJ73 23-147)
T3 construct: whole, on cells; Membranes of BHK tk'ts 13 cells transiently transfected with the rat calcitonin receptor and rat RAMP 3; also called rAmylin-R; rat amylin 3(a) receptor
T3 sequence (looked up) 1: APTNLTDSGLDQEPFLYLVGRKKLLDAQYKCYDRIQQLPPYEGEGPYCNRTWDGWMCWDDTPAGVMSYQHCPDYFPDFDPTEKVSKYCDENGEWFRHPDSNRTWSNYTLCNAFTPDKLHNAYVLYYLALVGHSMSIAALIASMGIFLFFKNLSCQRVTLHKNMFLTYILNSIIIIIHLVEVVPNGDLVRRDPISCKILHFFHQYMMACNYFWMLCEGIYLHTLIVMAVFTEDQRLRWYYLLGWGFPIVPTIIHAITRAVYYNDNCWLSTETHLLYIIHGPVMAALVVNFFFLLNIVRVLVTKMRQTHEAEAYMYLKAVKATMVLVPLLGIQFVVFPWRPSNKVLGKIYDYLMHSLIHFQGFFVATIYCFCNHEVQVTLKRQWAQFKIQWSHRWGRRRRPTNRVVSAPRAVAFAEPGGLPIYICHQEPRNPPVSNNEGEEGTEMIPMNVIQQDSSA
T3 sequence (looked up) 2: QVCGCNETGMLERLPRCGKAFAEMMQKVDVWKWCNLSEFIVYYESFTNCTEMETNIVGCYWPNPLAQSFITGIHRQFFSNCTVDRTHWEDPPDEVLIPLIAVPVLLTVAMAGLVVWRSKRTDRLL

T4: human amylin receptor (amylin 3(a) receptor: human calcitonin receptor coexpressed with RAMP-3) (human, UniProt P30988 25-474; O60896 24-148)
T4 sequence (looked up) 1: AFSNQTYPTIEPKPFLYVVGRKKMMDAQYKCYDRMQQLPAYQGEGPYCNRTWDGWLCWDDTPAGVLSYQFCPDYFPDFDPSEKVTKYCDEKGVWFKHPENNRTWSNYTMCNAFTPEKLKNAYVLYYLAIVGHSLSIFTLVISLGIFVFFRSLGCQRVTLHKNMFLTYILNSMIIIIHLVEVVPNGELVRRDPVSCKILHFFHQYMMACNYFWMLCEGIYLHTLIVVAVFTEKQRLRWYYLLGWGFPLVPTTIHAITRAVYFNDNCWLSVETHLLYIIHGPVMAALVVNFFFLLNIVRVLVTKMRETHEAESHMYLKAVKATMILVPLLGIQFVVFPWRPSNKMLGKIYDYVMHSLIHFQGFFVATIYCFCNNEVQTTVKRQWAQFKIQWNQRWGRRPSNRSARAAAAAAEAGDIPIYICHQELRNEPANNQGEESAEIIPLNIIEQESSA
T4 sequence (looked up) 2: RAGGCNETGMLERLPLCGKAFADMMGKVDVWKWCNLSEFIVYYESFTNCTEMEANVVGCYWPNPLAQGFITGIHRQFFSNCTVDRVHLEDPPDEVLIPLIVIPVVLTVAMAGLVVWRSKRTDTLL

T5: human calcitonin receptor (human, UniProt P30988 25-474)
T5 sequence (looked up): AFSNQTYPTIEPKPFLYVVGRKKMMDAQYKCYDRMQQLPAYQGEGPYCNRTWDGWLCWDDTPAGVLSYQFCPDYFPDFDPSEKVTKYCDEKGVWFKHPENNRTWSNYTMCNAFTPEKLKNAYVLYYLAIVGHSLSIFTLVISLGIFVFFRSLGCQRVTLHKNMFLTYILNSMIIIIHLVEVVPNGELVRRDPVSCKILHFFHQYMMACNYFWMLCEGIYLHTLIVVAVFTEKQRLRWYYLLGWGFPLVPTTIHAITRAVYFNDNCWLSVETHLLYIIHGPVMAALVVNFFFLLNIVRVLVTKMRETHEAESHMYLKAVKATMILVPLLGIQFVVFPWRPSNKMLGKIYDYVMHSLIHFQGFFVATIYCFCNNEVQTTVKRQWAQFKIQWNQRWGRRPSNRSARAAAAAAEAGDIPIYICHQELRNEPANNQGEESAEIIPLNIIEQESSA


How the values were obtained:
[1] = target: T1, human calcitonin receptor; assay: IC50 at hCTR divided by IC50 at hAmylin-R (reference)
Experimental: The resulting pellet was resuspended, homogenized and centrifuged (20.000 rpm, 15 min) in a buffer containing 20 mM Na-HEPES and 0.1 mM EDTA (pH 7.4, buffer 2). The resulting pellet was resuspended in buffer 2 and protein concentration was measured (BCA protein Assay, Pierce). The homogenate was kept cold during the whole procedure. The membranes were kept at −80° C. until use. The assay was performed in a 384 well Optiplate (PerkinElmer) in a total volume of 40 ul. Membranes were mixed with SPA beads. Final concentration of membranes 35 ng/μL final and SPA beads was 0.05 mg/well. Test-compounds were dissolved in DMSO and further diluted in assay buffer (50 mM Hepes, pH 7.4, 1 mM CaCl2, 5 mM MgCl₂, 0.1% OA and 0.02% Tween20). […] The final mixture was incubated with shaking at 400 rpm for 120 min at 25° C. prior to centrifugation (1500 rpm, 10 min). Samples were analyzed on TopCounter™ (Packard). The IC₅₀ was calculated using (one site binding competition analysis) GraphPad Prism5 as a measure of receptor affinity.
Membranes were prepared in the following way; the cells were rinsed with PBS and incubated with Versene for approximately 5 min before harvesting. The cells were flushed with PBS and the cell-suspension was centrifuged for 5 min at 1000 rpm. Cells were homogenized (Ultrathurrax) in a buffer containing 20 mM Na-HEPES and 10 mM EDTA (pH 7.4) and centrifuged at 20.000 rpm for 15 min. The resulting pellet was resuspended, homogenized and centrifuged (20.000 rpm, 15 min) in a buffer containing 20 mM Na-HEPES and 0.1 mM EDTA (pH 7.4, buffer 2). The resulting pellet was resuspended in buffer 2 and protein concentration was measured (BCA protein Assay, Pierce). The homogenate was kept cold during the whole procedure. The membranes were kept at −80° C. until use. Assay was performed in a 384 well Optiplate (PerkinElmer) in a total volume of 40 ul. Membranes were mixed with SPA beads.

[2] = target: T2, rat calcitonin receptor; assay: IC50 at rCTR divided by IC50 at rAmylin-R (reference)
[3] = target: T2, rat calcitonin receptor; assay: SPA competition vs 125I-calcitonin, membranes with rat CTR (Assay VIII)
[4] = target: T3, rat amylin receptor (rat calcitonin …); assay: SPA competition vs 125I-rat amylin, membranes with rat CTR + rat RAMP3 (Assay VI)
Experimental: The binding assay was performed using scintillation proximity assay (SPA) beads (RPNQ0001) from PerkinElmer and cell membranes from the Amylin 3(a)/CRE-luc cells (as described in Assay (II)) were used. Membranes were prepared in the following way; the cells were rinsed with PBS and incubated with Versene for approximately 5 min before harvesting. The cells were flushed with PBS and the cell-suspension was centrifuged for 5 min at 1000 rpm. Cells were homogenized (ultrathurrax) in a buffer containing 20 mM Na-HEPES and 10 mM EDTA (pH 7.4) and centrifuged at 20.000 rpm for 15 min. The resulting pellet was resuspended, homogenized and centrifuged (20.000 rpm, 15 min) in a buffer containing 20 mM Na-HEPES and 0.1 mM EDTA (pH 7.4, buffer 2). The resulting pellet was resuspended in buffer 2 and protein concentration was measured (BCA protein Assay, Pierce). The homogenate was kept cold during the whole procedure. The membranes were kept at −80° C. until use. The assay was performed in a 384 well Optiplate (PerkinElmer) in a total volume of 40 ul. Membranes were mixed with SPA beads. Final concentration of membranes 35 ng/μL final and SPA beads was 0.05 mg/well. Test-compounds were dissolved in DMSO and further diluted in assay buffer (50 mM Hepes, pH 7.4, 1 mM CaCl2, 5 mM MgCl₂, 0.1% OA and 0.02% Tween20). […] The final mixture was incubated with shaking at 400 rpm for 120 min at 25° C. prior to centrifugation (1500 rpm, 10 min). Samples were analyzed on TopCounter™ (Packard). The IC₅₀ was calculated using (one site binding competition analysis) GraphPad Prism5 as a measure of receptor affinity.
Cells were grown in DMEM with 10% FBS and 1% Pen/Strep. Approximately 48 hours after transfection, the cells were harvested and membranes were prepared.

[5] = target: T4, human amylin receptor (amylin 3(a) …); assay: cell-based or functional assay
[6] = target: T5, human calcitonin receptor; assay: cell-based or functional assay

Binder | Ratio hCT/hAmylin binding [1] | Ratio rCT/rAmylin binding [2] | IC50 [3] | IC50 [4] | hAmylin-R funct. EC50 (pM) [5] | Ratio hCT/hAmylin funct. [6] | hCTR funct. EC50 (pM) [6]
KCNTATCATQRLAEFLRHSSPNFGAIPSSTNVGSNTY (C20 diacid-gGlu-2xOEG on the alpha amino group of the N-terminal residue (Lys 1); disulfide bridge Cys2-Cys7; C-terminal amide, modifications are with respect to human amylin; also called compound 19) | 36.7 | 93.6 | 95.6 nM | 1.02 nM | – | – | –
KCNTATCATQRLANFLRHSSPNFGAIPSSTNVGRNTY (C20 diacid-gGlu on the alpha amino group of the N-terminal residue (Lys 1); disulfide bridge Cys2-Cys7; C-terminal amide, modifications are with respect to human amylin; also called compound 39) [N^α1-[(4S)-4-carboxy-4-(19-carboxynonadecanoylamino)butanoyl]-[Arg17,Pro21,Pro27,Arg34]-h-amylin] | 29 | 54.5 | 96.4 nM | 1.77 nM | – | – | –
K([γGlu-C16 diacid])CNTATCATQRLANFLRHSSPNFGAIPSSTNVGHNTY-NH2 (disulfide 2-7; N-terminus assumed; SMILES CC[C@H](C)[C@H](NC(=O)[C@H](C)NC(=O)CNC(=O)[C@H](Cc1ccccc1)NC(=O)[C@H](CC(N)=O)NC(=O)[C@@H]1CCCN1C(=O)[C@H](CO)NC(=O)[C@H](CO)NC(=O)[C@H](Cc1c[nH]cn1)NC(=O)[C@H](CCCNC(=N)N)NC(=O)[C@H](CC(C)C)NC(=O)[C@H](Cc1ccccc1)NC(=O)[C@H](CC(N)=O)NC(=O)[C@H](C)NC(=O)[C@H](CC(C)C)NC(=O)[C@H](CCCNC(=N)N)NC(=O)[C@H](CCC(N)=O)NC(=O)[C@@H](NC(=O)[C@H](C)NC(=O)[C@@H]1CSSC[C@H](NC(=O)[C@@H](N)CCCCNC(=O)CC[C@H](NC(=O)CCCCCCCCCCCCCCC(=O)O)C(=O)O)C(=O)N[C@@H](CC(N)=O)C(=O)N[C@@H]([C@@H](C)O)C(=O)N[C@@H](C)C(=O)N[C@@H]([C@@H](C)O)C(=O)N1)[C@@H](C)O)C(=O)N1CCC[C@H]1C(=O)N[C@@H](CO)C(=O)N[C@@H](CO)C(=O)N[C@H](C(=O)N[C@@H](CC(N)=O)C(=O)N[C@H](C(=O)NCC(=O)N[C@@H](Cc1c[nH]cn1)C(=O)N[C@@H](CC(N)=O)C(=O)N[C@H](C(=O)N[C@@H](Cc1ccc(O)cc1)C(N)=O)[C@@H](C)O)C(C)C)[C@@H](C)O) [N^ε1-[(4S)-4-carboxy-4-(15-carboxypentadecanoylamino)butanoyl]-[Arg17,Pro21,Pro27,His34]-h-amylin] | – | – | – | – | 34 pM | 65.1 | 2210 pM
